According to patent US6413759:

Key:
[1] = molecular target: T1, SKC-2-C42 (SKC-2 with deletion of the last 42 residues, 373-414)
T1 chain: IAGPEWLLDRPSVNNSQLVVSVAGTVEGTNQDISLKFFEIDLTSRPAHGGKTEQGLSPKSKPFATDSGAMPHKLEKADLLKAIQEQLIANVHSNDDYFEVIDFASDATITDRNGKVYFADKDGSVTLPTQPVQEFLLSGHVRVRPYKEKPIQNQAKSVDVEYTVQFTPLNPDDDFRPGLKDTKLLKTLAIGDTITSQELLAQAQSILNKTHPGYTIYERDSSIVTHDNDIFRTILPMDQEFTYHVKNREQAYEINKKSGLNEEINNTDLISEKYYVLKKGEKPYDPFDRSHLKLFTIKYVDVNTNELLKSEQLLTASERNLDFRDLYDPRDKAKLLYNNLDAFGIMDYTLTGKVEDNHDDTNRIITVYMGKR

[2] = molecular target: T2, SKC-2-N13 (SKC-2 with deletion of the first 13 N-terminal residues)
T2 chain: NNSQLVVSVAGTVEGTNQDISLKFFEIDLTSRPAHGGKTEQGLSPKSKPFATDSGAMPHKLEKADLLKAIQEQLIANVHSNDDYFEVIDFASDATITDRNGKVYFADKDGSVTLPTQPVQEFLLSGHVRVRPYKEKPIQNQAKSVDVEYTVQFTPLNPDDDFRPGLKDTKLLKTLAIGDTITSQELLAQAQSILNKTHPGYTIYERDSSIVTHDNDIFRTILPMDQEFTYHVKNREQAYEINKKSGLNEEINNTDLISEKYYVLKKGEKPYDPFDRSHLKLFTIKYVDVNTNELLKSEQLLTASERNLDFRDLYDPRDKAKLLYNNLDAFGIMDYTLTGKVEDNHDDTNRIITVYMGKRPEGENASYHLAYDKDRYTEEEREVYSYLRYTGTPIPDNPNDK

B1: human plasminogen (protein)
chain: EPLDDYVNTQGASLFSVTKKQLGAGSIEECAAKCEEDEEFTCRAFQYHSKEQQCVIMAENRKSSIIIRMRDVVLFEKKVYLSECKTGNGKNYRGTMSKTKNGITCQKWSSTSPHRPRFSPATHPSEGLEENYCRNPDNDPQGPWCYTTDPEKRYDYCDILECEEECMHCSGENYDGKISKTMSGLECQAWDSQSPHAHGYIPSKFPNKNLKKNYCRNPDRELRPWCFTTDPNKRWELCDIPRCTTPPPSSGPTYQCLKGTGENYRGNVAVTVSGHTCQHWSAQTPHTHNRTPENFPCKNLDENYCRNPDGKRAPWCHTTNSQVRWEYCKIPSCDSSPVSTEQLAPTAPPELTPVVQDCYHGDGQSYRGTSSTTTTGKKCQSWSSMTPHRHQKTPENYPNAGLTMNYCRNPDADKGPWCFTTDPSVRWEYCNLKKCSGTEASVVAPPPVVLLPDVETPSEEDCMFGNGKGYRGKRATTVTGTPCQDWAAQEPHRHSIFTPETNPRAGLEKNYCRNPDGDVGGPWCYTTNPRKLYDYCDVPQCAAPSFDCGKPQVEPKKCPGRVVGGCVAHPHSWPWQVSLRTRFGMHFCGGTLISPEWVLTAAHCLEKSPRPSSYKVILGAHQEVNLEPHVQEIEVSRLFLEPTRKDIALLKLSSPAVITDKVIPACLPSPNYVVADRTECFITGWGETQGTFGAGLLKEAQLPVIENKVCNRYEFLNGRVQSTELCAGHLAGGTDSCQGDSGGPLVCFEKDKYILQGVTSWGLGCARPNKPGVYVRVSRFVTWIEGVMRNN
- specific activity (agarose-fibrin plates, chromogenic substrate, clot lysis) [1]: 50000-100000 IU/mg
- specific activity (agarose-fibrin plates, chromogenic substrate, clot lysis) [2]: 2000-4000 lU/mg
